Test [1] addresses T1, Flag-tagged β-TrCP1 (Fbw1a) (human, UniProt Q9Y297 1-605).
T1 construct: F-box protein expressed from a Flag-tagged construct in HeLa cells and pulled down with anti-Flag resin; also called beta-TrCP1; Flag-beta-TrCP1; not shown: Flag tag
T1 sequence: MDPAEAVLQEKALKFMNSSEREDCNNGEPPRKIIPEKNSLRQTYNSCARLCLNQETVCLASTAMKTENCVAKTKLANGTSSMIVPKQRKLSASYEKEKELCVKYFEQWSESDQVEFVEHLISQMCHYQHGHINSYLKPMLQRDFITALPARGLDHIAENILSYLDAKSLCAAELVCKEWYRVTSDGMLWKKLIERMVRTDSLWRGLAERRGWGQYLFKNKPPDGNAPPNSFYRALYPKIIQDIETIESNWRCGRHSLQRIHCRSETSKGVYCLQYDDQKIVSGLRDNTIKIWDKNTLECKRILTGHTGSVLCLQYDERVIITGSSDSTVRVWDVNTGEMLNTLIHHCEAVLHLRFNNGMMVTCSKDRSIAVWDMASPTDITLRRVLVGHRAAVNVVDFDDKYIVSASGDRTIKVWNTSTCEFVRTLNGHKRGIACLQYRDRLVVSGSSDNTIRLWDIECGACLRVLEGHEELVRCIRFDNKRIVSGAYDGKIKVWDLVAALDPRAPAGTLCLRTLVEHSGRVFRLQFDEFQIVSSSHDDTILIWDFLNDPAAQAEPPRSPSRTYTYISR
Kind of test: anti-Flag immunoprecipitation from transfected HeLa cells, blot for Cdc25A. The text has this: (§1) FIG. 1. Cdc25A interacts with beta-TrCP1 and beta-TrCP2 in vivo (I). HeLa cells were transfected with the indicated Flag-tagged F-box protein constructs. F-box proteins were immunoprecipitated from extracts with an anti-Flag resin and immunocomplexes were blotted with Cul1, Cdc25A and Flag specific antibodies.

The target in test [2] is T2, Flag-tagged β-TrCP2 (Fbw1b) (human, UniProt Q9UKB1 1-542).
T2 construct: F-box protein expressed from a Flag-tagged construct in HeLa cells; also called beta-TrCP2; not shown: Flag tag
T2 sequence: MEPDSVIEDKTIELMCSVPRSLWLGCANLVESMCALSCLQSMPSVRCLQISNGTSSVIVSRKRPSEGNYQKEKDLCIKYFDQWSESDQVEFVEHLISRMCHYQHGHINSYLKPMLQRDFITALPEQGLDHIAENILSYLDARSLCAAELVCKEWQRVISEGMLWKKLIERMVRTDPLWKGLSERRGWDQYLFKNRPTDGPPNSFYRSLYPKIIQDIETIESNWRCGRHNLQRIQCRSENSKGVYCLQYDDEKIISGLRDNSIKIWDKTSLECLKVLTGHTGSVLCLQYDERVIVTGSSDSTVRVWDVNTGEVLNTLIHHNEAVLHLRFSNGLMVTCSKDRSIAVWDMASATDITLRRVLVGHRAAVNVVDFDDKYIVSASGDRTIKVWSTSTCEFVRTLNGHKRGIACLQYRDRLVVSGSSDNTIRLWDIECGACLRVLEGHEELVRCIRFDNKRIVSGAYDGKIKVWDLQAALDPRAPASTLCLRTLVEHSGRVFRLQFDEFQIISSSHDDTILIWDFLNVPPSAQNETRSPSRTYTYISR
The test is described as above.
Excerpt: as §1

In another test the target is T3, Cul1 (endogenous) (human, UniProt Q13616 1-776).
T3 construct: Human by the cell lines used; also called Cul1 subunit
Kind of test: Flag-tagged Cdc25A immunocomplexes blotted for Cul1.

The next test concerns the target T4, Skp1 (endogenous) (human, UniProt P63208 2-163).
T4 construct: Human by the cell lines used
Kind of test: Flag-tagged Cdc25A immunocomplexes blotted for Skp1.

The target in a further test is T5, β-TrCP1 (endogenous) (human, UniProt Q9Y297 1-605).
T5 construct: also called beta-TrCP
T5 sequence: T1 sequence
The experiment in a line: Flag-tagged Cdc25A immunocomplexes blotted for β-TrCP1.

Test [3] has as its target T1, Flag-tagged β-TrCP1 (Fbw1a). Kind of test: co-expression in HeLa cells, anti-Flag β-TrCP1 immunocomplexes blotted for Cdc25A.
Test [4] has the same target. The experiment in a line: anti-Flag immunoprecipitation from HeLa cells co-transfected with His-Cdc25A, blot for Cdc25A.
The target of test [5] is T6, Flag-tagged Fbw7 (form not stated, FIG. 2) (human, UniProt Q969H0 1-707, limits assumed).
T6 construct: The Fbw7 of the parallel experiment with overexpressed Cdc25A; not shown: Flag tag
The test is described as above.

The target in test [6] is T2, Flag-tagged β-TrCP2 (Fbw1b). Described as above.
In another test the target is T7, Flag-tagged Skp2 (human, UniProt Q13309 1-424, limits assumed).
T7 construct: not shown: Flag tag
The description is as above.

Residue numbers refer to the chain shown, from its start.

T3 sequence (Q13616 whole entry): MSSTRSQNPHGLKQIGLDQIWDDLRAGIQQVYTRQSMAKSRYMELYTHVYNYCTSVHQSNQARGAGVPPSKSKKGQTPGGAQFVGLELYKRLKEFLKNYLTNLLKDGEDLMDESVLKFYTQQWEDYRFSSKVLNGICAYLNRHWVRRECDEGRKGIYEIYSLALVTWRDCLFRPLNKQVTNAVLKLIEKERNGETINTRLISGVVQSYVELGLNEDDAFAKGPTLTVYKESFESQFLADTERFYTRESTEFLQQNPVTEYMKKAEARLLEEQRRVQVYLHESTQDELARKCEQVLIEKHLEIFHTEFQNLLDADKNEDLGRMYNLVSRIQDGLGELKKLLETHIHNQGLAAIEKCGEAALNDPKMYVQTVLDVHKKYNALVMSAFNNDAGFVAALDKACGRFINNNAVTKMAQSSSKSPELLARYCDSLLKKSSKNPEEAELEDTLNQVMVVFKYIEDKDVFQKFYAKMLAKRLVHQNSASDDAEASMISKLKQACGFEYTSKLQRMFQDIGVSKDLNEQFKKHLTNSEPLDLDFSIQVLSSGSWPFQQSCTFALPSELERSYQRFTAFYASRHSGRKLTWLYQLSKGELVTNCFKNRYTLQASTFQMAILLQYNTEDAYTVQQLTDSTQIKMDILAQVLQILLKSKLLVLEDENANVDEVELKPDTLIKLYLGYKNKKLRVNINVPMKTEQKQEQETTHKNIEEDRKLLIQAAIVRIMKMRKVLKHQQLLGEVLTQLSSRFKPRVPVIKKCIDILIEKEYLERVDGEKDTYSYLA
T7 sequence (Q13309 whole entry): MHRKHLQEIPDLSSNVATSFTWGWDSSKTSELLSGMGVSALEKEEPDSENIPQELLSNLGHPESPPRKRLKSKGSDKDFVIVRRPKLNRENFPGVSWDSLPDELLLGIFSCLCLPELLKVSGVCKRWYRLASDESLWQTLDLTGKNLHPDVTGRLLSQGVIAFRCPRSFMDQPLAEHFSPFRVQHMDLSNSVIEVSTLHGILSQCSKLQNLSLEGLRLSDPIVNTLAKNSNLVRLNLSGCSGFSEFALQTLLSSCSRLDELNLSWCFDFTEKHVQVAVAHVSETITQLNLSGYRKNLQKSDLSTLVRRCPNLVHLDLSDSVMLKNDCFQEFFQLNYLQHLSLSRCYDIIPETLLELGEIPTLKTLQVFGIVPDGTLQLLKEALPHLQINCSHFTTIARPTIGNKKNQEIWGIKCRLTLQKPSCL
T6 sequence (Q969H0 whole entry): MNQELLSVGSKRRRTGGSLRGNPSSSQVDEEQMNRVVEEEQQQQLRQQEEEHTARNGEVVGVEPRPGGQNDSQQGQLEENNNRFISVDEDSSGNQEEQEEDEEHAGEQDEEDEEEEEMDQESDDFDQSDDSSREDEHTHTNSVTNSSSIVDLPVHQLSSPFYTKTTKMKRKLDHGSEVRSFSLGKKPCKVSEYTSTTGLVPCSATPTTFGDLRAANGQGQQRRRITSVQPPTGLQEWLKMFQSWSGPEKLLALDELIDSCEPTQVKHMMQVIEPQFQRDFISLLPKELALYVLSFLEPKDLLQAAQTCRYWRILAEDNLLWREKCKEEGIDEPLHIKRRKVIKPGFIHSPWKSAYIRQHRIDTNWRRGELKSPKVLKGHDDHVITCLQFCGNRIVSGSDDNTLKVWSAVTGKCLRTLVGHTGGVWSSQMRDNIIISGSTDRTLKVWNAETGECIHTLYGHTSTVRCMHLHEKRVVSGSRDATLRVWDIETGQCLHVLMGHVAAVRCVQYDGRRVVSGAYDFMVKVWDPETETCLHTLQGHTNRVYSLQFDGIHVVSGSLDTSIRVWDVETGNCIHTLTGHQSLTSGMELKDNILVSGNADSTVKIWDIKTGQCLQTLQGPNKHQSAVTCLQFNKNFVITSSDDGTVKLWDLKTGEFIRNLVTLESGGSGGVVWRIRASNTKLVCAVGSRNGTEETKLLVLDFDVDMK
T4 sequence (P63208 2-163 limits assumed): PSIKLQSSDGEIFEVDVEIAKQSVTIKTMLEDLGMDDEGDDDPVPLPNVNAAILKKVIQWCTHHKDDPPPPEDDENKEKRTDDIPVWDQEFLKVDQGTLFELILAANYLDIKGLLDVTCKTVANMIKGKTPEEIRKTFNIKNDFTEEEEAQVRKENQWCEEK

B1: Cdc25A (endogenous, HeLa cells) (enzyme)
chain: MELGPSPAPRRLLFACSPPPASQPVVKALFGASAAGGLSPVTNLTVTMDQLQGLGSDYEQPLEVKNNSNLQRMGSSESTDSGFCLDSPGPLDSKENLENPMRRIHSLPQKLLGCSPALKRSHSDSLDHDIFQLIDPDENKENEAFEFKKPVRPVSRGCLHSHGLQEGKDLFTQRQNSAQLGMLSSNERDSSEPGNFIPLFTPQSPVTATLSDEDDGFVDLLDGENLKNEEETPSCMASLWTAPLVMRTTNLDNRCKLFDSPSLCSSSTRSVLKRPERSQEESPPGSTKRRKSMSGASPKESTNPEKAHETLHQSLSLASSPKGTIENILDNDPRDLIGDFSKGYLFHTVAGKHQDLKYISPEIMASVLNGKFANLIKEFVIIDCRYPYEYEGGHIKGAVNLHMEEEVEDFLLKKPIVPTDGKRVIVVFHCEFSSERGPRMCRYVRERDRLGNEYPKLHYPELYVLKGGYKEFFMKCQSYCEPPSYRPMHHEDFKEDLKKFRTKSRTWAGEKSKREMYSRLKKL
modifications: hyperphosphorylated in the form that co-precipitates with beta-TrCP (λ-phosphatase gave a faster migrating band); sites not mapped in that experiment
notes: also called cell division cycle 25A
Regarding B1, the binding result in test [1] and in [2] was “binds” throughout.

B2: Flag-tagged Cdc25A DSG2x (enzyme)
chain: B1 chain with S81A, S87A
notes: Point mutant of the full-length pCDNA3.1-Flag-Cdc25A construct; also called DSG2x mutated protein; DSG2x protein; not shown: Flag tag from pCDNA3.1-Flag vector
B2: the binding result with Cul1 (endogenous), with Skp1 (endogenous) and with β-TrCP1 (endogenous) was “no binding” each time.

B3: His-tagged Cdc25A DSG3x (enzyme)
chain: B1 chain with S78A, S81A, S87A
notes: not shown: His tag
With B3, in test [3], the binding result is on record as “no binding”.

B4: His-tagged Cdc25A DSG2x (enzyme)
chain: B1 chain with S81A, S87A
notes: not shown: His tag
B4: the binding result in test [3] is “no binding”.

B5: His-Cdc25A (overexpressed wild type) (enzyme)
chain: B1 chain
notes: also called overexpressed Cdc25A; not shown: His tag
Take B5: the binding result in test [4] is “binds”; in test [5], “no binding”; in test [6], “binds”; with Flag-tagged Skp2 it was “no binding”.

Source of the values: US20060177829A1 (NEW YORK UNIVERSITY, published 2006).
